Laboratory results from the supplement of paper PMC9112550, “Optimization of the antimicrobial peptide Bac7 by deep mutational scanning” (BMC Biology, 2022).

test system: Escherichia coli TOP10; experiment: shrunken log2 fold change of peptide-encoding DNA abundance (4.5 h post-induction vs induction); higher = less antimicrobial activity (less host growth inhibition); conditions: time post-induction: 4.5 h; library: site-saturation at positions 5, 18, 19, 20
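Note: peptides expressed intracellularly from a pBAD plasmid library in pooled LB shake-flask culture, induced with 0.3% L-arabinose, DNA abundance read by NGS, three biological replicates, DESeq2 with apeglm shrinkage.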

Row | Sequence | shrunken log2 fold change
1 | RRIRKRPPRLPRPRPRPYMRPRP | -0.0194
2 | RRIRKRPPRLPRPRPRPYPCPRP | -0.034
3 | RRIRKRPPRLPRPRPRPYPDPRP | -0.175
4 | RRIRKRPPRLPRPRPRPYPHPRP | -0.207
5 | RRIRKRPPRLPRPRPRPYPLPRP | -0.095
6 | RRIRKRPPRLPRPRPRPYQGPRP | -0.231
7 | RRIRKRPPRLPRPRPRPYQHPRP | -0.0857
8 | RRIRKRPPRLPRPRPRPYRLPRP | -0.212
9 | RRIRKRPPRLPRPRPRPYRPPRP | 0.0318
10 | RRIRKRPPRLPRPRPRPYVHPRP | -0.431
11 | RRIRKRPPRLPRPRPRPYWHPRP | -0.684
12 | RRIRLRPPRLPRPRPRPAACPRP | 0.267
13 | RRIRLRPPRLPRPRPRPAAHPRP | 0.163
14 | RRIRLRPPRLPRPRPRPAATPRP | 0.379
15 | RRIRLRPPRLPRPRPRPACIPRP | -0.0506
16 | RRIRLRPPRLPRPRPRPACLPRP | 0.00436
17 | RRIRLRPPRLPRPRPRPACRPRP | 0.227
18 | RRIRLRPPRLPRPRPRPADAPRP | 0.599
19 | RRIRLRPPRLPRPRPRPADYPRP | -0.0944
20 | RRIRLRPPRLPRPRPRPAELPRP | -0.172
21 | RRIRLRPPRLPRPRPRPAFMPRP | -0.112
22 | RRIRLRPPRLPRPRPRPAFPPRP | 0.0371
23 | RRIRLRPPRLPRPRPRPAFVPRP | 0.205
24 | RRIRLRPPRLPRPRPRPAFWPRP | 0.292
25 | RRIRLRPPRLPRPRPRPAGFPRP | 0.46

Row | Sequence | shrunken log2 fold change
26 | RRIRLRPPRLPRPRPRPAGTPRP | 0.216
27 | RRIRLRPPRLPRPRPRPAHTPRP | 0.0258
28 | RRIRLRPPRLPRPRPRPALHPRP | 0.135
29 | RRIRLRPPRLPRPRPRPAMAPRP | 0.00127
30 | RRIRLRPPRLPRPRPRPAMGPRP | 0.248
31 | RRIRLRPPRLPRPRPRPAPGPRP | 0.432
32 | RRIRLRPPRLPRPRPRPAPQPRP | 0.609
33 | RRIRLRPPRLPRPRPRPAQRPRP | 0.172
34 | RRIRLRPPRLPRPRPRPAQVPRP | 0.324
35 | RRIRLRPPRLPRPRPRPARGPRP | 0.565
36 | RRIRLRPPRLPRPRPRPARHPRP | 0.148
37 | RRIRLRPPRLPRPRPRPASHPRP | 0.0961
38 | RRIRLRPPRLPRPRPRPASIPRP | 0.0291
39 | RRIRLRPPRLPRPRPRPASRPRP | 0.00832
40 | RRIRLRPPRLPRPRPRPATFPRP | -0.0149
41 | RRIRLRPPRLPRPRPRPATGPRP | 0.13
42 | RRIRLRPPRLPRPRPRPAWAPRP | 0.232
43 | RRIRLRPPRLPRPRPRPAWLPRP | 0.229
44 | RRIRLRPPRLPRPRPRPAWRPRP | 0.454
45 | RRIRLRPPRLPRPRPRPAYEPRP | 2.25
46 | RRIRLRPPRLPRPRPRPCCHPRP | -0.215
47 | RRIRLRPPRLPRPRPRPCCLPRP | -0.293
48 | RRIRLRPPRLPRPRPRPCDCPRP | -0.0629
49 | RRIRLRPPRLPRPRPRPCESPRP | 0.0102
50 | RRIRLRPPRLPRPRPRPCGCPRP | 0.282

Row | Sequence | shrunken log2 fold change
51 | RRIRLRPPRLPRPRPRPCGPPRP | -0.107
52 | RRIRLRPPRLPRPRPRPCGYPRP | -0.111
53 | RRIRLRPPRLPRPRPRPCICPRP | -0.346
54 | RRIRLRPPRLPRPRPRPCLYPRP | -0.247
55 | RRIRLRPPRLPRPRPRPCNQPRP | -1.15
56 | RRIRLRPPRLPRPRPRPCNVPRP | -0.3
57 | RRIRLRPPRLPRPRPRPCPPPRP | 0.157
58 | RRIRLRPPRLPRPRPRPCPTPRP | 0.0726
59 | RRIRLRPPRLPRPRPRPCQHPRP | -0.382
60 | RRIRLRPPRLPRPRPRPCRMPRP | -0.0411
61 | RRIRLRPPRLPRPRPRPCTGPRP | -0.0081
62 | RRIRLRPPRLPRPRPRPCVLPRP | -0.44
63 | RRIRLRPPRLPRPRPRPCVQPRP | -0.0514
64 | RRIRLRPPRLPRPRPRPCWCPRP | 0.0793
65 | RRIRLRPPRLPRPRPRPCWEPRP | -0.197
66 | RRIRLRPPRLPRPRPRPCWHPRP | -0.0884
67 | RRIRLRPPRLPRPRPRPCWPPRP | 0.0177
68 | RRIRLRPPRLPRPRPRPCYCPRP | -0.219
69 | RRIRLRPPRLPRPRPRPDAYPRP | -0.281
70 | RRIRLRPPRLPRPRPRPDDLPRP | -0.0581
71 | RRIRLRPPRLPRPRPRPDEKPRP | -0.00968
72 | RRIRLRPPRLPRPRPRPDFRPRP | 0.0254
73 | RRIRLRPPRLPRPRPRPDFSPRP | 0.177
74 | RRIRLRPPRLPRPRPRPDGNPRP | -0.0479
75 | RRIRLRPPRLPRPRPRPDGPPRP | 0.0394
